Source: publication PMC13397619

B1: NLV3 TCR beta chain (CDR3β only) (parent)
chain: ASSPTGGSPSPLH
partner: NLCPMVATV

Variants of: B1
Test: T-Switch: Jurkat TCRβ−/− cells expressing a CDR3 saturation-mutagenesis library, stained with two peptide-HLA-A*02:01 tetramers (original and novel peptide) plus anti-CD3, FACS-sorted into four gates, gDNA sequenced
Details: with HLA-A*02:01 with peptide … (NLV 2-1, the novel peptide), tetramers 1 µg/mL, 30 min on ice, SP, DP and SW gates expanded about 10 days between rounds ('two to three rounds of selection' in the Methods), gate SW: higher = more of the variant in the gate that binds the novel peptide and not the original one = switched binding. Fold enrichment of the CDR3 variant in one FACS gate of a two-tetramer stain, unresolved parent, parent is a CDR3 fragment, scale: fold enrichment, numbering: sequential-on-construct, sequence starts at 1

Variant | enrichment
[…] (CDR3 as printed); H13M derived by comparing it with the table's wild-type CDR3 ASSPTGGSPSPLH | 0
[…] (CDR3 as printed); L12H derived by comparing it with the table's wild-type CDR3 ASSPTGGSPSPLH | 0
[…] (CDR3 as printed); S8P derived by comparing it with the table's wild-type CDR3 ASSPTGGSPSPLH | 0
[…] (CDR3 as printed); G6I derived by comparing it with the table's wild-type CDR3 ASSPTGGSPSPLH | 0
[…] (CDR3 as printed); S8M derived by comparing it with the table's wild-type CDR3 ASSPTGGSPSPLH | 0
[…] (CDR3 as printed); T5S derived by comparing it with the table's wild-type CDR3 ASSPTGGSPSPLH | 0
[…] (CDR3 as printed); S10N derived by comparing it with the table's wild-type CDR3 ASSPTGGSPSPLH | 0
[…] (CDR3 as printed); P9S derived by comparing it with the table's wild-type CDR3 ASSPTGGSPSPLH | 0
[…] (CDR3 as printed); S3H derived by comparing it with the table's wild-type CDR3 ASSPTGGSPSPLH | 0
[…] (CDR3 as printed); S8Q derived by comparing it with the table's wild-type CDR3 ASSPTGGSPSPLH | 0
[…] (CDR3 as printed); P4E derived by comparing it with the table's wild-type CDR3 ASSPTGGSPSPLH | 0
[…] (CDR3 as printed); S2V derived by comparing it with the table's wild-type CDR3 ASSPTGGSPSPLH | 0
[…] (CDR3 as printed); P11F derived by comparing it with the table's wild-type CDR3 ASSPTGGSPSPLH | 0
[…] (CDR3 as printed); P11C derived by comparing it with the table's wild-type CDR3 ASSPTGGSPSPLH | 0
[…] (CDR3 as printed); L12F derived by comparing it with the table's wild-type CDR3 ASSPTGGSPSPLH | 0
[…] (CDR3 as printed); P9D derived by comparing it with the table's wild-type CDR3 ASSPTGGSPSPLH | 0
[…] (CDR3 as printed); A1M derived by comparing it with the table's wild-type CDR3 ASSPTGGSPSPLH | 0
[…] (CDR3 as printed); H13R derived by comparing it with the table's wild-type CDR3 ASSPTGGSPSPLH | 0
[…] (CDR3 as printed); P4G derived by comparing it with the table's wild-type CDR3 ASSPTGGSPSPLH | 0
[…] (CDR3 as printed); S3K derived by comparing it with the table's wild-type CDR3 ASSPTGGSPSPLH | 0
[…] (CDR3 as printed); S3L derived by comparing it with the table's wild-type CDR3 ASSPTGGSPSPLH | 0

Variant | enrichment
[…] (CDR3 as printed); S3R derived by comparing it with the table's wild-type CDR3 ASSPTGGSPSPLH | 0
[…] (CDR3 as printed); A1C derived by comparing it with the table's wild-type CDR3 ASSPTGGSPSPLH | 0
[…] (CDR3 as printed); T5C derived by comparing it with the table's wild-type CDR3 ASSPTGGSPSPLH | 0
[…] (CDR3 as printed); P11K derived by comparing it with the table's wild-type CDR3 ASSPTGGSPSPLH | 0
[…] (CDR3 as printed); L12R derived by comparing it with the table's wild-type CDR3 ASSPTGGSPSPLH | 0
[…] (CDR3 as printed); P9E derived by comparing it with the table's wild-type CDR3 ASSPTGGSPSPLH | 0
[…] (CDR3 as printed); G7W derived by comparing it with the table's wild-type CDR3 ASSPTGGSPSPLH | 0
[…] (CDR3 as printed); P4Q derived by comparing it with the table's wild-type CDR3 ASSPTGGSPSPLH | 0
[…] (CDR3 as printed); G6A derived by comparing it with the table's wild-type CDR3 ASSPTGGSPSPLH | 0
[…] (CDR3 as printed); A1T derived by comparing it with the table's wild-type CDR3 ASSPTGGSPSPLH | 0
[…] (CDR3 as printed); S3N derived by comparing it with the table's wild-type CDR3 ASSPTGGSPSPLH | 0
[…] (CDR3 as printed); P4I derived by comparing it with the table's wild-type CDR3 ASSPTGGSPSPLH | 0
[…] (CDR3 as printed); P11E derived by comparing it with the table's wild-type CDR3 ASSPTGGSPSPLH | 0
[…] (CDR3 as printed); S10R derived by comparing it with the table's wild-type CDR3 ASSPTGGSPSPLH | 0
[…] (CDR3 as printed); G6R derived by comparing it with the table's wild-type CDR3 ASSPTGGSPSPLH | 0
[…] (CDR3 as printed); T5E derived by comparing it with the table's wild-type CDR3 ASSPTGGSPSPLH | 0
[…] (CDR3 as printed); P9Y derived by comparing it with the table's wild-type CDR3 ASSPTGGSPSPLH | 0
[…] (CDR3 as printed); S3M derived by comparing it with the table's wild-type CDR3 ASSPTGGSPSPLH | 0
[…] (CDR3 as printed); S10L derived by comparing it with the table's wild-type CDR3 ASSPTGGSPSPLH | 0
[…] (CDR3 as printed); S3W derived by comparing it with the table's wild-type CDR3 ASSPTGGSPSPLH | 0
[…] (CDR3 as printed); T5A derived by comparing it with the table's wild-type CDR3 ASSPTGGSPSPLH | 0
